This is an account of results in publication PMC11849073, “Specific recognition mechanism of an antibody to sulfated tyrosine and its potential use in biological research” (The Journal of Biological Chemistry, 2025).

Several values for one entry are separate records, joined by “and”; a condition that tells them apart may be missing. Equal values may be shown once. Read-outs that look alike come from different tables or passages of the source.

Data set [1] can be described thus: DSF thermal stability of BA8 Fab and mutants. Format: physicochemical. The method, then: To assess the effect of sulfated peptide binding on the thermal stability of BA8, we performed differential scanning fluorimetry (DSF) measurements (Fig. 2C) ([25]). The melting temperature (Tm) of BA8 forming a complex with the sulfated peptide was 75.6 °C, whereas the pre-binding Tm was 70.8 °C.
We evaluated the stabilizing effect of peptide binding on each mutant using DSF (Fig. S6).
The DSF thermal stability measurements were performed using a CFX Real-Time PCR System (Bio-Rad). First, 1 μl of 100 × SYPRO Orange stain was diluted with 19 μl of 8.3 μM unbound-BA8 Fab or the solution remaining in the cell after ITC measurement. Next, fluorescence was scanned every minute to obtain melting curves of the solutions as they were heated at 1.0 °C/min. The change in the scanned relative fluorescence unit per unit time was recorded, and the temperature at its peak was considered to be the melting temperature (Tm) ([42]).

For data set [2], the system named is endogenous CCR5 expressed on TZM-bl. In words: Flow cytometry binding to TZM-bl cells. It counts as cell-based. To be noted: BA8 full-length IgG, read-out: BC50 (the source's name). Background: A flow cytometer gives signals particle by particle.
Description: Cells were aliquoted into 96 Well Conical (V) Bottom Plates (ThermoFisher Scientific) at 50,000 cells per sample and fixed with 2% paraformaldehyde at 4 °C for 30 min. After a PBS wash, 50 μl of goat anti-rabbit IgG Alexa 488 (Invitrogen) diluted 1000-fold by PBS were added to the sample. After incubation at 4 °C for 30 min, PBS washed cells were diluted with PBS containing 2% fetal bovine serum, and flow cytometry was performed using a FACS Canto system (BD Biosciences).
Data set [3] deals with sulfated CCR5 on HEK293 cells transfected with CCR5 + TPST2 (C2). In words: Flow cytometry binding to C2 cells. It counts as cell-based. An excerpt: (§1) We prepared model cells with transient overexpression to examine whether BA8 can recognize sulfated full-length CCR5. As referred in the Introduction section, previous research has shown that protein tyrosine sulfotransferases (TPSTs) are responsible for tyrosine sulfation ([10], [11], [12]). Those two isoforms of TPST (TPST1 and TPST2) and CCR5 genes were transiently transfected in the following five combinations to HEK293 cells: Negative Control (NC); CCR5 (C); CCR5 + TPST1 (C1); CCR5 + TPST2 (C2); and CCR5 + TPST1 + TPST2 (C12). Each protein contained the following tag sequences at the C-terminus: CCR5 – FLAG, TPST1 – HA, and TPST2 – Myc. The overexpression of each protein was confirmed by western blotting using tag antibodies (Fig. 5, A and B).
(§2) We conducted flow cytometry using these cells to confirm that BA8 can recognize sulfated CCR5 expressed on the cell surface (Fig. 5D).
(§3) To quantitatively evaluate the binding ability of BA8 to C2 and C12 cells, we plotted the median fluorescence intensity of antibody binding against BA8 concentration (Fig. 5E). An increase in the signal with increasing antibody concentration was confirmed, and the binding activity was quantitatively evaluated by fitting with a sigmoid function.
(§4) HEK293 cells stored in liquid nitrogen were initiated into the culture by thawing. […]

For data set [4], the system named is CCR5 sulfated by TPST2 in cell lysates. As to the kind of experiment: Western blotting of transfected HEK293 cell lysates with BA8 as detection antibody. Format: binding. To be noted: 100 nM BA8 (full-length IgG) as detection antibody; lysates of NC, C, C1, C2, C12 cells.
Excerpt: as §1
We prepared recombinant BA8 as a full-length IgG form for subsequent cell-based assays (Fig. S2, C and D).
The cell lysate suspended in RIPA Buffer was placed on ice for 30 min, followed by centrifugation at 20,000 × g for 20 min. […] Protein bands were detected by incubating the membranes with anti-DDDDK-tag mAb-HRP-DirecT, anti-HA tag mAb-HRP-DirecT, anti-Myc tag mAb-HRP-DirecT (all from MBL Lifescience), or each IgG followed by incubation with horseradish peroxidase (HRP)-conjugated anti-rabbit IgG, HRP-linked antibody (Cell Signaling Technology) at room temperature for 30 min. […]

Data set [5] relates to sulfated N-terminal peptide of CCR5. In words: ITC analysis of BA8 Fab (wild type and mutants) with the sulfated peptide. Format: binding. To be noted: 10 μM Fab in cell, 100 μM sulfated peptide in syringe, PBS, 25 °C. An excerpt: To determine the thermodynamic parameters accompanying the interaction, we performed an ITC analysis (Fig. 2B, Table 2).
To further dissect how molecular recognition occurs, we evaluated the contribution of individual residues of BA8 to the recognition of the sulfated peptide. We analyzed the crystal structure using the PDB PISA server, and we conducted mutation analyses in which the residues predicted to form hydrogen bonds or located at the interface were mutated to alanine (Fig. 3B).
The ITC experiments were performed using a MicroCal PEAQ-ITC (Malvern Panalytical, Malvern, UK). The BA8 Fab fragment antibody, sufficiently dialyzed in PBS, was adjusted to 10 μM for the cells, and the CCR5 N-terminal peptide, dissolved in the dialysate, was adjusted to 100 μM for the syringe. The first injection of 0.5 μl (omitted from the analysis) was followed by 19 injections of 2 μl with 120 s intervals at a constant temperature of 25 °C. The titration syringe was continuously stirred at 750 rpm.
The baselines were smoothly adjusted for the step after each titration saturated and fitted as one set of sites binding in MicroCal PEAQ-ITC Analysis Software (Malvern Panalytical, Malvern, UK).
For orientation: Isothermal titration calorimetry measures the heat released or taken up as one component is titrated into another.

In data set [6] the test system is CCR5 on HEK293 cells transfected with CCR5 (C) or CCR5 + TPST1 (C1). As to the kind of experiment: Flow cytometry binding to C and C1 cells. To be noted: cells overexpressing only CCR5 or CCR5 and TPST1. It counts as cell-based.
Excerpt: as §1, §2
HEK293 cells stored in liquid nitrogen were initiated into the culture by thawing. After the third passage, at 70% confluency, they were transfected with pCAGGS expression vectors containing CCR5, TPST1, or TPST2 using Lipofectamine 3000 Transfection Reagent (ThermoFisher Scientific). To exclude artifacts caused by the transfection operation itself, empty vectors without the objective protein were transfected if the protein was not to be expressed. […]

The test system of data set [7] is sulfated CCR5 on HEK293 cells transfected with CCR5 + TPST1 + TPST2 (C12). In words: Flow cytometry binding to C12 cells. It counts as cell-based. To be noted: BA8 full-length IgG, median fluorescence intensity vs concentration, sigmoid fit, read-out: half-maximal binding concentration (BC50).
Excerpt: as §1, §2, §3, §4

B1: BA8: rabbit antibody clone from phage display that specifically recognizes the sulfated N-terminal peptide of CCR5 (antibody, V domains shown)
VH: QSLEESGGGLFKPTDTLTLTCTVSGFSLSSYSIRWVRQAPGNGLEWIGAIGSGGNAYYTSWAKSRSTITRNTNENTVTLKMTSLTVADTATYFCARGGINFGIWGPGTLVTVSS
VL: AAVLTQTPSPVSAAVGSTVTINCQSSQSVYSKNWLSWFQQKPGQPPKQLIYSASTLDSGVPSRFSGSGSGTQFTLTISGVQCDDAATYYCQGTYGDASAFGGGTEVVVK
Consider B1, for which the “melting temperature (Tm), unbound (pre-binding)” value in data set [1] (SYPRO Orange, 8.3 μM unbound Fab, heated at 1.0 °C/min) worked out at 70.8 °C. Further, the “melting temperature (Tm) of BA8 forming a complex with the sulfated peptide” value in data set [1] (SYPRO Orange, solution remaining in the cell after ITC measurement, 1.0 °C/min) came to 75.6 °C. The “increase of Tm after forming a complex with the sulfated peptide versus BA8 alone” value in data set [1] (complex from the ITC measurement) amounted to 4.8 °C. For the same molecule, the EC50 in data set [2] was 49 nM and ~50 nM; in data set [3] (C2 cells, BA8 full-length IgG, median fluorescence intensity vs concentration, sigmoid fit, read-out: half-maximal binding concentration (BC50)), 3.64 nM; in data set [3] (HEK293 overexpression system, C2 or C12 not specified, read-out: BC50 in overexpression system using HEK293 cells (approximate, discussion)), approximately 3 nM; in data set [7] it was 3.71 nM. In addition, the “recognition of CCR5 in cell lysates by western blotting, in words” value in data set [4] is “specifically recognized CCR5 in the lysates of cells C2 and C12”. The ΔH in data set [5] is -28.7 kcal/mol. The “binding to C and C1 cells in flow cytometry, in words” value in data set [6] was “slight binding”.
